Data set [1] has as its target T1, TRAF4 (Homo sapiens, UniProt Q9BUZ4).
T1 construct: TRAF domain (TRAF-6His), homotrimer
T1 sequence (Q9BUZ4 283-470): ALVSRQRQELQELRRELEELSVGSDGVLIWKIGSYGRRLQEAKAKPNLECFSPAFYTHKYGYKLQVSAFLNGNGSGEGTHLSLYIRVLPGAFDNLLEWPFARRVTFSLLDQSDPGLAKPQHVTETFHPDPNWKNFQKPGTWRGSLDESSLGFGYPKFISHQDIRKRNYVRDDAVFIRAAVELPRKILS
As to the kind of experiment: isothermal titration calorimetry. In kind it is binding. In general terms: In ITC the heat of successive injections is recorded.

Data set [2] deals with the molecule itself. The data set is described as follows: native MS; ESI-TOF in native condition, TRAF-6His alone (no lipid), 20 pmol/µL protein in ammonium bicarbonate buffer (100 mM NH4HCO3 pH 8).
Data set [3] concerns the molecule itself. The data set is described as follows: SEC + other: dynamic light scattering; gel filtration of 1 ml containing 1 mg WT or 0.3 mg K345E TRAF domain; DLS with 20 µM protein at 25°C in 10 mM Tris pH 7.5, 150 mM NaCl. On the technique in general: SEC sorts molecules by how far they enter the pores of the column.

What is called Kd is the constant that tells how readily two partners part at equilibrium. Low values mean a tighter complex, high ones a looser complex. As usually defined, the stoichiometry N is the number of molecules, sites or subunits per partner or assembly.

Numbering of substitutions follows the chain as printed. Numbers in names are those of the source.

`O=P(O)(O)O[C@H]1[C@H](O)[C@@H](OP(=O)(O)O)[C@H](OP(=O)(O)O)[C@@H](OP(=O)(O)O)[C@H]1O` [IP4, inositol-(1,3,4,5)-tetrakisphosphate]: the Kd in data set [1] worked out at 5.68 µM.

B1: TRAF domain of human TRAF4 fused to a 6His tag (TRAF-6His) (domain or fragment, UniProt Q9BUZ4 283-470, looked up)
chain: T1 sequence (Q9BUZ4 283-470)
notes: Tumor necrosis factor receptor-associated factor 4 (TRAF4), human, TRAF domain; the crystal structure includes residues 283-470 of the TRAF domain; Printed monomer mass 22.6 kDa; also called TRAF4-TRAF domain; WT TRAF domain
Consider B1, for which the “stoichiometry N” value in data set [2] turned out to be 3.

B2: K345E mutant TRAF domain of TRAF4 (domain or fragment, human, UniProt Q9BUZ4 283-470, looked up)
chain: T1 sequence (Q9BUZ4 283-470) with K63E
notes: Tumor necrosis factor receptor-associated factor 4 (TRAF4), human, TRAF domain with K345E; same limits as the wild-type TRAF domain, whose structure includes residues 283-470; also called TRAF-K345E; TRAF-6HIS K345E; source: E. coli, purified
For B2, the “stoichiometry N” value in data set [3] stood at 3.

Source of the values: publication PMC3848981 (PLoS Biology, 2013).
